In the supplement of paper PMC9112550, “Optimization of the antimicrobial peptide Bac7 by deep mutational scanning” (BMC Biology, 2022):

System: Escherichia coli TOP10
Assay: shrunken log2 fold change of peptide-encoding DNA abundance (4.5 h post-induction vs induction); higher = less antimicrobial activity (less host growth inhibition)
Conditions: time post-induction: 4.5 h; library: site-saturation at positions 5, 18, 19, 20
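Also: peptides expressed intracellularly from a pBAD plasmid library in pooled LB shake-flask culture, induced with 0.3% L-arabinose, DNA abundance read by NGS, three biological replicates, DESeq2 with apeglm shrinkage.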

RRIRGRPPRLPRPRPRPTVFPRP
shrunken log2 fold change: 0.993

RRIRLRPPRLPRPRPRPRAAPRP
shrunken log2 fold change: 0.417

RRIRRRPPRLPRPRPRPPFMPRP
shrunken log2 fold change: 0.22

RRIRYRPPRLPRPRPRPASCPRP
shrunken log2 fold change: -0.235

RRIRFRPPRLPRPRPRPDWIPRP
shrunken log2 fold change: -0.114

RRIRIRPPRLPRPRPRPREMPRP
shrunken log2 fold change: 0.00525

RRIRWRPPRLPRPRPRPARMPRP
shrunken log2 fold change: 0.362

RRIRVRPPRLPRPRPRPSMTPRP
shrunken log2 fold change: -0.175

RRIRYRPPRLPRPRPRPRHIPRP
shrunken log2 fold change: -0.767

RRIRPRPPRLPRPRPRPEMTPRP
shrunken log2 fold change: -0.0182

RRIRARPPRLPRPRPRPKWDPRP
shrunken log2 fold change: 0.373

RRIRTRPPRLPRPRPRPTMHPRP
shrunken log2 fold change: 0.0843

RRIRPRPPRLPRPRPRPWEHPRP
shrunken log2 fold change: -0.0525

RRIRSRPPRLPRPRPRPCNNPRP
shrunken log2 fold change: -0.332

RRIRYRPPRLPRPRPRPVNIPRP
shrunken log2 fold change: -0.617

RRIRSRPPRLPRPRPRPGYQPRP
shrunken log2 fold change: -0.147

RRIRYRPPRLPRPRPRPFDWPRP
shrunken log2 fold change: -0.122

RRIRMRPPRLPRPRPRPHSGPRP
shrunken log2 fold change: 0.00795

RRIRERPPRLPRPRPRPHKHPRP
shrunken log2 fold change: -0.671

RRIRGRPPRLPRPRPRPLECPRP
shrunken log2 fold change: 0.447

RRIRGRPPRLPRPRPRPDVTPRP
shrunken log2 fold change: 1.31

RRIRRRPPRLPRPRPRPDQSPRP
shrunken log2 fold change: 0.0941

RRIRARPPRLPRPRPRPGIYPRP
shrunken log2 fold change: -0.225

RRIRFRPPRLPRPRPRPWWCPRP
shrunken log2 fold change: -0.0371

RRIRFRPPRLPRPRPRPYGDPRP
shrunken log2 fold change: -0.0819

RRIRPRPPRLPRPRPRPDPVPRP
shrunken log2 fold change: 0.214

RRIRARPPRLPRPRPRPNMEPRP
shrunken log2 fold change: -0.0484

RRIRCRPPRLPRPRPRPFPNPRP
shrunken log2 fold change: -0.0279

RRIRMRPPRLPRPRPRPGHAPRP
shrunken log2 fold change: 2.85

RRIRLRPPRLPRPRPRPMSNPRP
shrunken log2 fold change: -0.089

RRIRERPPRLPRPRPRPQYNPRP
shrunken log2 fold change: -0.927

RRIRTRPPRLPRPRPRPKSLPRP
shrunken log2 fold change: -0.291

RRIRHRPPRLPRPRPRPCCSPRP
shrunken log2 fold change: -0.313

RRIRGRPPRLPRPRPRPLNWPRP
shrunken log2 fold change: 0.0909

RRIRKRPPRLPRPRPRPCPYPRP
shrunken log2 fold change: 0.151

RRIRCRPPRLPRPRPRPPLSPRP
shrunken log2 fold change: 0.312

RRIRLRPPRLPRPRPRPFYDPRP
shrunken log2 fold change: 0.00534

RRIRDRPPRLPRPRPRPDDKPRP
shrunken log2 fold change: 0.0802

RRIRARPPRLPRPRPRPNHIPRP
shrunken log2 fold change: -0.8

RRIRYRPPRLPRPRPRPPMMPRP
shrunken log2 fold change: -0.836

RRIRMRPPRLPRPRPRPDNEPRP
shrunken log2 fold change: 0.379

RRIRNRPPRLPRPRPRPVFAPRP
shrunken log2 fold change: -0.0312

RRIRARPPRLPRPRPRPKGWPRP
shrunken log2 fold change: 0.862

RRIRIRPPRLPRPRPRPYGCPRP
shrunken log2 fold change: 0.0504

RRIRRRPPRLPRPRPRPGYMPRP
shrunken log2 fold change: 0.0939

RRIRSRPPRLPRPRPRPCVSPRP
shrunken log2 fold change: -0.391

RRIRPRPPRLPRPRPRPLCWPRP
shrunken log2 fold change: 0.266

RRIRDRPPRLPRPRPRPYHHPRP
shrunken log2 fold change: -0.0229

RRIRHRPPRLPRPRPRPKGCPRP
shrunken log2 fold change: 0.031

RRIRDRPPRLPRPRPRPQSIPRP
shrunken log2 fold change: 0.00839

RRIRERPPRLPRPRPRPTAIPRP
shrunken log2 fold change: 0.32

RRIRPRPPRLPRPRPRPSENPRP
shrunken log2 fold change: -0.0512

RRIRGRPPRLPRPRPRPQRCPRP
shrunken log2 fold change: 0.0883

RRIRKRPPRLPRPRPRPDVCPRP
shrunken log2 fold change: -0.0122

RRIRQRPPRLPRPRPRPPCFPRP
shrunken log2 fold change: 0.222

RRIRMRPPRLPRPRPRPPGAPRP
shrunken log2 fold change: 2.06

RRIRFRPPRLPRPRPRPTSGPRP
shrunken log2 fold change: 0.219

RRIRERPPRLPRPRPRPMSHPRP
shrunken log2 fold change: -0.741

RRIRWRPPRLPRPRPRPWGRPRP
shrunken log2 fold change: 0.0619

RRIRHRPPRLPRPRPRPYSGPRP
shrunken log2 fold change: -0.151

RRIRKRPPRLPRPRPRPFDQPRP
shrunken log2 fold change: -0.0318

RRIRHRPPRLPRPRPRPQRCPRP
shrunken log2 fold change: -0.00202

RRIRYRPPRLPRPRPRPENYPRP
shrunken log2 fold change: -0.0233

RRIRSRPPRLPRPRPRPMLWPRP
shrunken log2 fold change: 0.619

RRIRWRPPRLPRPRPRPMCMPRP
shrunken log2 fold change: 0.0952

RRIRHRPPRLPRPRPRPSVWPRP
shrunken log2 fold change: -0.151

RRIRWRPPRLPRPRPRPRQDPRP
shrunken log2 fold change: 0.796

RRIRFRPPRLPRPRPRPARHPRP
shrunken log2 fold change: 0.262

RRIRLRPPRLPRPRPRPRFLPRP
shrunken log2 fold change: -0.144

RRIRDRPPRLPRPRPRPAFQPRP
shrunken log2 fold change: 0.201

RRIRSRPPRLPRPRPRPQHNPRP
shrunken log2 fold change: -0.628

RRIRLRPPRLPRPRPRPITYPRP
shrunken log2 fold change: -0.266

RRIRARPPRLPRPRPRPINTPRP
shrunken log2 fold change: -0.631

RRIRARPPRLPRPRPRPDMIPRP
shrunken log2 fold change: -0.0395

RRIRWRPPRLPRPRPRPFDFPRP
shrunken log2 fold change: -0.159

RRIRMRPPRLPRPRPRPDQHPRP
shrunken log2 fold change: 0.237

RRIRERPPRLPRPRPRPRMYPRP
shrunken log2 fold change: -0.723

RRIRKRPPRLPRPRPRPQTRPRP
shrunken log2 fold change: 0.358

RRIRERPPRLPRPRPRPRKTPRP
shrunken log2 fold change: 0.318

RRIRKRPPRLPRPRPRPWCTPRP
shrunken log2 fold change: -0.0115

RRIRERPPRLPRPRPRPIPHPRP
shrunken log2 fold change: -0.19

RRIRKRPPRLPRPRPRPHSMPRP
shrunken log2 fold change: 0.0496

RRIRWRPPRLPRPRPRPFLNPRP
shrunken log2 fold change: -0.425

RRIRTRPPRLPRPRPRPDDDPRP
shrunken log2 fold change: -0.00136

RRIRWRPPRLPRPRPRPCVAPRP
shrunken log2 fold change: 0.321

RRIRFRPPRLPRPRPRPDRNPRP
shrunken log2 fold change: -0.182

RRIRFRPPRLPRPRPRPPSPPRP
shrunken log2 fold change: 0.688

RRIRNRPPRLPRPRPRPVRNPRP
shrunken log2 fold change: 0.178

RRIRERPPRLPRPRPRPHWGPRP
shrunken log2 fold change: 0.0212

RRIRGRPPRLPRPRPRPEKWPRP
shrunken log2 fold change: -0.0809

RRIRYRPPRLPRPRPRPFMWPRP
shrunken log2 fold change: -0.307

RRIRGRPPRLPRPRPRPMTNPRP
shrunken log2 fold change: 0.835

RRIRGRPPRLPRPRPRPFQEPRP
shrunken log2 fold change: 0.0152

RRIRPRPPRLPRPRPRPQDHPRP
shrunken log2 fold change: -0.12

RRIRSRPPRLPRPRPRPDPDPRP
shrunken log2 fold change: -0.0414

RRIRGRPPRLPRPRPRPFAYPRP
shrunken log2 fold change: 0.184

RRIRARPPRLPRPRPRPDHCPRP
shrunken log2 fold change: 0.063

RRIRGRPPRLPRPRPRPEVPPRP
shrunken log2 fold change: 0.434

RRIRTRPPRLPRPRPRPPTRPRP
shrunken log2 fold change: 0.663

RRIRHRPPRLPRPRPRPSTHPRP
shrunken log2 fold change: -0.564

RRIRPRPPRLPRPRPRPFPWPRP
shrunken log2 fold change: -0.0429

RRIRIRPPRLPRPRPRPEKWPRP
shrunken log2 fold change: -0.0117

RRIRNRPPRLPRPRPRPYIVPRP
shrunken log2 fold change: -0.314

RRIRDRPPRLPRPRPRPAYKPRP
shrunken log2 fold change: -0.456

RRIRKRPPRLPRPRPRPYVTPRP
shrunken log2 fold change: -0.401

RRIRVRPPRLPRPRPRPMFRPRP
shrunken log2 fold change: -0.048

RRIRNRPPRLPRPRPRPNQIPRP
shrunken log2 fold change: -0.319

RRIRKRPPRLPRPRPRPAMTPRP
shrunken log2 fold change: 0.596

RRIRQRPPRLPRPRPRPQWFPRP
shrunken log2 fold change: 0.0435

RRIRGRPPRLPRPRPRPNDSPRP
shrunken log2 fold change: -0.0552

RRIRLRPPRLPRPRPRPVFMPRP
shrunken log2 fold change: -0.203

RRIRCRPPRLPRPRPRPVKNPRP
shrunken log2 fold change: -0.344

RRIRRRPPRLPRPRPRPLQEPRP
shrunken log2 fold change: 0.019

RRIRLRPPRLPRPRPRPDSSPRP
shrunken log2 fold change: 0.00161

RRIRARPPRLPRPRPRPGEAPRP
shrunken log2 fold change: 0.942

RRIRPRPPRLPRPRPRPSHPPRP
shrunken log2 fold change: -0.03

RRIRPRPPRLPRPRPRPWLCPRP
shrunken log2 fold change: 0.106

RRIRMRPPRLPRPRPRPMSCPRP
shrunken log2 fold change: 0.0466

RRIRPRPPRLPRPRPRPKSTPRP
shrunken log2 fold change: -0.244

RRIRRRPPRLPRPRPRPLFVPRP
shrunken log2 fold change: -0.0826

RRIRERPPRLPRPRPRPPVRPRP
shrunken log2 fold change: 0.538

RRIRFRPPRLPRPRPRPYEHPRP
shrunken log2 fold change: -0.0962

RRIRKRPPRLPRPRPRPFLLPRP
shrunken log2 fold change: -0.399

RRIRRRPPRLPRPRPRPDIKPRP
shrunken log2 fold change: -0.374

RRIRRRPPRLPRPRPRPVVKPRP
shrunken log2 fold change: -0.0155
